The test addresses cysteine-free green-absorbing Proteorhodopsin. The experiment in a line: cross-linking.

The stoichiometry N is the number of molecules, sites or subunits per partner or assembly. As to “cysteine-free green-absorbing Proteorhodopsin (natural protein)”, the stoichiometry N came out at 6.

These data come from article PMC4374980.
